From patent publication US20210179715A1 (Genentech, published 2021)
“And” between values parts separate entries of the source, which are not always exact repeats. Equal values may be shown once. Read-outs that look alike come from different tables or passages of the source. One block for each binder: values may come before it.

Experiments:
[1] = target: T1, polypeptide comprising amino acids 93-104 of LY6G6D (HRDCYLGDLCNS) (human); assay: co-crystal structure
T1 construct: also called LY6G6D peptide
T1 peptide: HRDCYLGDLCNS

[2] = target: T2, human LY6G6D-Fc (human, UniProt O95868 20-104); assay: BIAcore SPR; chimeric Fab; Ly6G6D-Fc captured on Protein A chip; 37 C
T2 construct: also called hu Ly6G6D; huLY6G6D; not shown: linker and Fc part
T2 sequence: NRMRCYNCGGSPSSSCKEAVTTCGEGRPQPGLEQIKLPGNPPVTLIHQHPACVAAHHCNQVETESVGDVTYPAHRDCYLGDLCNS

[3] = target: T3, 27mer human CD3 polypeptide conjugated to biotin (human, conjugated to biotin (site not stated)); assay: BIAcore T200 SPR; biotin 27mer CD3 peptide on SA chip; TDB flowed; 37 C
T3 construct: The assay text says only '27mer human CD3 polypeptide'; also called HuCD3e pept biotin
T3 peptide: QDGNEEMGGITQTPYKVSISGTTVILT
Experimental: The MD1 and MD4 variants thus retained the high affinity of 38E4v1. Assays were performed using a BIAcore T200: 27mer human and cyno CD3 polypeptides were conjugated to biotin and were immobilized on a SA CM5 chip, and TDBs were flowed through at 100 μl/min at 37° C.

[4] = target: T3, 27mer human CD3 polypeptide conjugated …; assay: as above
Experimental: Assays were performed using a BIAcore T200. 27mer human and cyno CD3 polypeptides were conjugated to biotin and were immobilized on a SA CM5 chip. LY6G6D TDBs were flowed through at 37° C.

[5] = target: T2, human LY6G6D-Fc; assay: BIAcore SPR; LY6G6D-Fc on chip; TDB flowed; 37 C
Experimental: TDBs comprising the anti-LY6G6D arm 20Al2.QNTv12 and the anti-CD3 38E4.v1 (left panel; produced using a two-cell-manufacturing system), 38E4.v1 MD1 (center panel; produced using a one-cell-manufacturing system), or 38E4.v1 MD4 arm (right panel; produced using a one-cell-manufacturing system) were assayed for affinity for a human Ly6G6D polypeptide (FIG. 25) using a BIAcore assay.

[6] = target: T2, human LY6G6D-Fc; assay: BIAcore SPR; LY6G6D-Fc on chip; TDB flowed; 37 C; remark: listed apart in the source
Experimental: TDBs comprising the anti-LY6G6D 20A12.QNTv12 arm and the anti-CD3 38E4.v1 arm (FIG. 24A) or 40G5C arm (FIG. 24B) were assayed for affinity for a human and cyno Ly6G6D polypeptide using a BIAcore assay. Ly6G6D-Fc was directly immobilized on the chip, and the TDB was flowed through at 37° C. Similar assays were performed for TDBs comprising the anti-LY6G6D 1G4 arm and the anti-CD3 38E4.v1 arm (FIG. 24C) or 40G5C arm (FIG. 24D).

[7] = target: T2, human LY6G6D-Fc; assay: BIAcore SPR; LY6G6D-Fc on chip; Fab flowed; 37 C
Experimental: (§1) The humanized rb.20A12 variant 20A12.QNTv12, the humanized rb.6E10 variant 6E10.v114, and the anti-LY6G6D 1G4 arm were paired with the anti-CD3 38E4v1 or 40G5c arm as TDBs and tested for affinity to human and cynomolgus LY6G6D in a BIAcore® assay. Rabbit 20Al2, rabbit 6E10, and humanized 20A12.QNTv12 and 20A12.SNVv12 were additionally assayed for binding as antigen-binding fragments (Fabs). LY6G6D-Fc was directly immobilized on a chip, and TDBs were flowed through at 37° C., except for the rb6E10 Fab, which was assayed at 25° C.

[8] = target: T2, human LY6G6D-Fc; assay: BIAcore SPR
Experimental: as §1

[9] = target: T1, polypeptide comprising amino acids …; assay: co-crystal structure, 2.2 A
Experimental: Ten 20A12.QNTv12 Fabs were tested.

- Kd [2]: 0.86 nM
B2: rb20A12.IA (C35I-C50A) chimeric Fab (Fab, V domains shown)
VH: QQQLEESGGDLVKPGASLTLTCTASGFDFVNNAMIWVRQAPGKGLEWIAALSFADNTAYYATWASGRFTISKISSTTVTLRMTSLTGADTATYFCMRGDLWGPGTLVTVSS
VL: DIVMTQTPSSVSAAVGGTVTINCQASESITRYLNWYQQKPGQPPKLLIYDASKLPSGVPSRFKGSGSGTQFTLTTSDLECADAATYYCQSTSFRGRSYNNTFGGGTEVVVK
notes: also called rabbit 20A12 comprising C35I and C50A (IA) mutations

- Kd [7]: 0.0195 nM
- koff [7]: 4.26e-05 s⁻¹
- kon [7]: 2.18e+06 M⁻¹ s⁻¹
B6: hu20A12.SNVv12 Fab (Fab, V domains shown)
VH: EVQLLESGGGLVQPGGSLRLSCAASGFDFVNNAMIWVRQAPGKGLEWVSALSFADNTAYYATWASGRFTISRDSSKTTVYLQMNSLRAEDTAVYYCMRGDLWGPGTLVTVSS
VL: DIQMTQSPSTLSASVGDRVTITCQASESITRYLNWYQQKPGKAPKLLIYDASKLPSGVPSRFSGSGSGTEFTLTISSLQPDDFATYYCQSTSFRGRSYSNVFGGGTKVEIKR

- Kd [7]: 0.136 nM
- koff [7]: 0.000227 s⁻¹
- kon [7]: 1.67e+06 M⁻¹ s⁻¹
- Kd [8]: 0.14 nM
- binding result [9]: binds
B7: hu20A12.QNTv12 Fab (Fab, V domains shown)
VH: EVQLLESGGGLVQPGGSLRLSCAASGFDFVNNAMIWVRQAPGKGLEWVSALSFADNTAYYATWASGRFTISRDSSKTTVYLQMNSLRAEDTAVYYCMRGDLWGPGTLVTVSS
VL: DIQMTQSPSTLSASVGDRVTITCQASESITRYLNWYQQKPGKAPKLLIYDASKLPSGVPSRFSGSGSGTEFTLTISSLQPDDFATYYCQSTSFRGRSYQNTFGGGTKVEIKR

The remaining lines, values behind:

B1: 1G4 Fab (Fab, V domains shown)
VH: EVQLVQSGAEVKKPGASVKVSCKASGYTFTTYVMHWVRQAPGQGLEWMGYINPYNDGTKYNEKFKGRVTMTRDTSISTAYMELSRLRSDDTAVYYCGRRNFDYWGQGTLVTVSS
VL: DIVMTQSPDSLAVSLGERATINCKSSQSLLLSGNQENYLAWHQQKPGQPPKTLITWASTRISGVPDRFSGSGSGTDFTLTISSLQAEDVAVYYCQQSYSAPYTFGGGTKVEIKR
notes: also called Fab of 1G4
- binding result [1]: binds

B3: LY6G6D TDB assembled using a one-cell system comprising the anti-LY6G6D 20A12.QNTv12 arm (one-cell) and the anti-CD3 38E4v1 MD4 arm (bispecific antibody, V domains shown)
VH 1: EVQLLESGGGLVQPGGSLRLSCAASGFDFVNNAMIWVREAPGKGLEWVSALSFADNTAYYATWASGRFTISRDSSKTTVYLQMNSLRAEDTAVYYCMRGDLWGPGTLVTVSS
VL 1: DIQMTQSPSTLSASVGDRVTITCQASESITRYLNWYQKKPGKAPKLLIYDASKLPSGVPSRFSGSGSGTEFTLTISSLQPDDFATYYCQSTSFRGRSYQNTFGGGTKVEIK
VH 2: EVQLVQSGAEVKKPGASVKVSCKASGFTFTSYYIHWVRKAPGQGLEWIGWIYPENDNTKYNEKFKDRVTITADTSTSTAYLELSSLRSEDTAVYYCARDGYSRYYFDYWGQGTLVTVSS
VL 2: DIVMTQSPDSLAVSLGERATINCKSSQSLLNSRTRKNYLAWYQEKPGQPPKLLIYWASTRKSGVPDRFSGSGSGTDFTLTISSLQAEDVAVYYCKQSFILRTFGQGTKVEIK
notes: also called 20A12.QNTv12.MD4/38E4v1; MD4 one-cell
- Kd [3]: 18.8 nM and 18.6 nM
- koff [3]: 0.0544 s⁻¹ and 0.0495 s⁻¹
- kon [3]: 2.89e+06 M⁻¹ s⁻¹ and 2.66e+06 M⁻¹ s⁻¹
- Kd [4]: 18.7 nM
- Kd [5]: 1.89 nM
- koff [5]: 0.000559 s⁻¹
- kon [5]: 296000 M⁻¹ s⁻¹

B4: LY6G6D TDB comprising the anti-LY6G6D 1G4 arm and the anti-CD3 38E4.v1 arm (bispecific antibody, V domains shown)
VH 1: EVQLVQSGAEVKKPGASVKVSCKASGYTFTTYVMHWVRQAPGQGLEWMGYINPYNDGTKYNEKFKGRVTMTRDTSISTAYMELSRLRSDDTAVYYCGRRNFDYWGQGTLVTVSS
VL 1: DIVMTQSPDSLAVSLGERATINCKSSQSLLLSGNQENYLAWHQQKPGQPPKTLITWASTRISGVPDRFSGSGSGTDFTLTISSLQAEDVAVYYCQQSYSAPYTFGGGTKVEIK
VH 2: EVQLVQSGAEVKKPGASVKVSCKASGFTFTSYYIHWVRQAPGQGLEWIGWIYPENDNTKYNEKFKDRVTITADTSTSTAYLELSSLRSEDTAVYYCARDGYSRYYFDYWGQGTLVTVSS
VL 2: DIVMTQSPDSLAVSLGERATINCKSSQSLLNSRTRKNYLAWYQQKPGQSPKLLIYWTSTRKSGVPDRFSGSGSGTDFTLTISSLQAEDVAVYYCKQSFILRTFGQGTKVEIK
notes: also called 1G4/38E4v1
- Kd [6]: 16.3 nM
- koff [6]: 0.00886 s⁻¹
- kon [6]: 544000 M⁻¹ s⁻¹

B5: LY6G6D TDB assembled using a one-cell system comprising the anti-LY6G6D 20A12.QNTv12 arm (one-cell) and the anti-CD3 38E4v1 (WT) arm (bispecific antibody, V domains shown)
VH 1: EVQLLESGGGLVQPGGSLRLSCAASGFDFVNNAMIWVREAPGKGLEWVSALSFADNTAYYATWASGRFTISRDSSKTTVYLQMNSLRAEDTAVYYCMRGDLWGPGTLVTVSS
VL 1: DIQMTQSPSTLSASVGDRVTITCQASESITRYLNWYQKKPGKAPKLLIYDASKLPSGVPSRFSGSGSGTEFTLTISSLQPDDFATYYCQSTSFRGRSYQNTFGGGTKVEIK
VH 2: EVQLVQSGAEVKKPGASVKVSCKASGFTFTSYYIHWVRKAPGQGLEWIGWIYPENDNTKYNEKFKDRVTITADTSTSTAYLELSSLRSEDTAVYYCARDGYSRYYFDYWGQGTLVTVSS
VL 2: DIVMTQSPDSLAVSLGERATINCKSSQSLLNSRTRKNYLAWYQEKPGQSPKLLIYWTSTRKSGVPDRFSGSGSGTDFTLTISSLQAEDVAVYYCKQSFILRTFGQGTKVEIK
notes: also called WT one-cell; one-cell WT
- Kd [3]: 19.9 nM and 21.3 nM
- koff [3]: 0.0516 s⁻¹ and 0.0498 s⁻¹
- kon [3]: 2.59e+06 M⁻¹ s⁻¹ and 2.34e+06 M⁻¹ s⁻¹
- Kd [4]: 20.6 nM

B8: LY6G6D TDB assembled using a one-cell system comprising the anti-LY6G6D 20A12.QNTv12 arm (one-cell) and the anti-CD3 38E4v1 MD1 arm (bispecific antibody, V domains shown)
VH 1: EVQLLESGGGLVQPGGSLRLSCAASGFDFVNNAMIWVREAPGKGLEWVSALSFADNTAYYATWASGRFTISRDSSKTTVYLQMNSLRAEDTAVYYCMRGDLWGPGTLVTVSS
VL 1: DIQMTQSPSTLSASVGDRVTITCQASESITRYLNWYQKKPGKAPKLLIYDASKLPSGVPSRFSGSGSGTEFTLTISSLQPDDFATYYCQSTSFRGRSYQNTFGGGTKVEIK
VH 2: EVQLVQSGAEVKKPGASVKVSCKASGFTFTSYYIHWVRKAPGQGLEWIGWIYPENDNTKYNEKFKDRVTITADTSTSTAYLELSSLRSEDTAVYYCARDGYSRYYFDYWGQGTLVTVSS
VL 2: DIVMTQSPDSLAVSLGERATINCKSSQSLLNSRTRKNYLAWYQEKPGQPPKLLIYWASTRESGVPDRFSGSGSGTDFTLTISSLQAEDVAVYYCTQSFILRTFGQGTKVEIK
notes: also called 20A12.QNTv12.MD1/38E4v1; MD1 one-cell
- Kd [3]: 32.8 nM and 32.4 nM
- koff [3]: 0.0504 s⁻¹ and 0.0456 s⁻¹
- kon [3]: 1.54e+06 M⁻¹ s⁻¹ and 1.41e+06 M⁻¹ s⁻¹
- Kd [4]: 32.6 nM
- Kd [5]: 1.9 nM
- koff [5]: 0.000796 s⁻¹
- kon [5]: 420000 M⁻¹ s⁻¹
